How the values were obtained:
[1] = tested on: human TDCs with endogenous IL18 and IL18BP; test: Ex vivo culture of human tumor dissociated cells (TDCs); type: cell-based
Experimental: Resected tumor specimens were cut into 1 mm pieces using scalpel and transferred into enzymatic digestion mix (Tumor Dissociation kit, Miltenyi, 130-095-929). Dissociation was done according to the manufacturer's instructions using gentle MACS Dissociator (Miltenyi Biotec). Dissociation time lasted 1 h under mechanical rotation and heating. Samples were centrifuged for 3 min at 300 g, pellet was resuspended in RPMI, passed through a MACS SmartStrainer (70 μm), and centrifuged for 7 min at 300 g. Cells were resuspended with RBC for 3 min, washed with RPMI 1640, transferred through 40 μm filter and centrifuged for 7 min at 300 g. Finally, cells were resuspended in PBS, stained with Trypan blue and counted. Samples were then stained for flow cytometric analyses or resuspended in fetal bovine serum containing 10% of dimethyl sulfoxide for storage in liquid nitrogen.
Human TDC samples were seeded at 0.1×10^6 of CD45+ cells per well in 96-well plate, pre-coated with anti-CD3 and anti-CD28 antibodies (10 μg/ml both). Complete medium, [RPMI 1640 (BI, Cat. #01-110-1A) supplemented with 10% human AB serum (Sigma, Cat. #H3667), 1% Penicillin/Streptomycin (BI, Cat. #03-031-1B), 1% 1-glutamine (Life Technologies, Cat. #35050-038) and 1% of sodium pyruvate (BI, Cat. #03-042-1B)] was used. […]

[2] = biological target: T1, recombinant human IL18-BP (Homo sapiens, UniProt O95998); test: MEL624:TIL assay; type: cell-based; conditions: rhIL-18 30 ng/ml + rhIL-18BP 1 μg/ml, vs isotype control
T1 construct: purchased R&D systems 119-BP
T1 sequence (O95998 31-194): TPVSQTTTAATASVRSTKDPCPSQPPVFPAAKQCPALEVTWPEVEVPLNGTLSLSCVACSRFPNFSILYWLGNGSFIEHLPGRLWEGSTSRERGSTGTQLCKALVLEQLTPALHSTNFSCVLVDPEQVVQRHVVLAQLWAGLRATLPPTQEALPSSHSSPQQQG
Experimental: Human MEL624 cells were thawed and grown in DMEM with 10% FBS, 1% Glutamax, 1% Penicillin-Streptomycin Solution and 1% HEPES buffer. The cells were then seeded at 75 k cells/well in a 96 well plate in the assay medium (IMDM with 10% human serum, 1% Glutamax, 1% MEM eagle, 1% Sodium Pyruvate and 1% Penicillin-Streptomycin Solution) and incubated 1 hour in 37° C., 5% CO2 incubator before co-culture with human tumor infiltrating lymphocytes that were previously expanded using known melanoma antigens (TILs). Human TILs were thawed in full TIL media and 75 k cells/well were co-cultured with the MEL624 cells to create an effector: target ratio of 1:1. The co-cultured cells were then treated with rhIL-18 (30 ng/ml) and rhIL-18BP (1 μg/ml) for 30 min in 37° C., 5% CO2 incubator to allow IL-18:IL-18BP complex formation. After 30 minutes, anti-human IL-18BP mAb (ADI-71722, dose titration, 30 μg/ml-0.01 μg/ml, dilution factor of 1:3) or relevant isotype control (hIgG1 30 μg/ml) were added to the co-culture to examine its capability to restore IL-18 activity. Cells and all added solutions were prepared in full assay medium to a final volume of 200 μl/well. Plates were incubated for 24 hours in 37° C., 5% CO2 incubator, after which the supernatant was collected for cytokine secretion evaluation. All tests were done in triplicates and each repeated with TIL four donors. […]

B1: ADI-71739: anti-IL18-BP antibody, sequences in FIG. 2K; 66716 lineage (antibody, V domains shown)
VH: QLQLQESGPGLVKPSETLSLTCTVSGGSISSPDYPWGWIRQPPGKGLEWIGSIYYQGATYYNPSLKSRVTISVDTSKNQFSLKLSSVTAADTAVYYCARGPYRQLFDYWGQGTLVTVSS
VL: DIQMTQSPSSVSASVGDRVTITCRASQGISSWLAWYQQKPGKAPKLLIYAASSLQSGVPSRFSGSGSGTDFTLTISSLQPEDFATYYCQQGSVFPYTFGGGTKVEIK
- Cytokine and Granzyme B secretion by TDCs, vs media ([1]; 10 μg/ml, anti-CD3/anti-CD28 stimulation, human ovarian TDC sample): enhanced TNFa, IFNg, IL2 and Granzyme B secretion
- Cytokine and Granzyme B secretion by TDCs, combination with pembrolizumab vs Pembro alone ([1]; each 10 μg/ml): further increased TNFa, IFNg, and Granzyme B secretion
- IFNγ secretion from TILs [2]: increase IFNγ secretion from TILs

From patent publication US20240425607A1, “IL-18BP ANTAGONIST ANTIBODIES AND THEIR USE IN MONOTHERAPY AND COMBINATION THERAPY IN THE TREATMENT OF CANCER” (Compugen Ltd., priority 2023, published 2024)
